For two molecules, Kd and koff results are on record in article PMC5437307 (2017).

Usually Kd stands for the concentration at which binding is half-saturated. Usually koff stands for the first-order rate constant of dissociation.

“And” between values parts separate entries of the source, which are not always exact repeats. Identical values can stand only once.

The target in one test is IL-2Rβγc (Homo sapiens) (UniProt P14784). The conditions noted are these: cited from earlier work.
In test [1] the target is T1, F42A mutant (IL-2-Fc format) (human, UniProt P60568 21-153, F42A). The test is described as follows: SPR. (Surface plasmon resonance follows binding to a sensor surface in real time, without labels.)
The target of test [2] is T1, F42A mutant (IL-2-Fc format). Nature of the test: SPR. The source holds these as a separate data set.

Sequence of IL-2Rβγc (Homo sapiens) (P14784 27-240, chain 1 of 2): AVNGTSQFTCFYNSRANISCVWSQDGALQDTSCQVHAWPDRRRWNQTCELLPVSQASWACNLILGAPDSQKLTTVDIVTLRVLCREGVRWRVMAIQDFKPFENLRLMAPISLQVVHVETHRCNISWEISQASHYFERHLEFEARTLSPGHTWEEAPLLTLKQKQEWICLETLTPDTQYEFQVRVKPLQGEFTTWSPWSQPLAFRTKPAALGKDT
Sequence of IL-2Rβγc (Homo sapiens) (P31785 23-262, chain 2 of 2, further chain): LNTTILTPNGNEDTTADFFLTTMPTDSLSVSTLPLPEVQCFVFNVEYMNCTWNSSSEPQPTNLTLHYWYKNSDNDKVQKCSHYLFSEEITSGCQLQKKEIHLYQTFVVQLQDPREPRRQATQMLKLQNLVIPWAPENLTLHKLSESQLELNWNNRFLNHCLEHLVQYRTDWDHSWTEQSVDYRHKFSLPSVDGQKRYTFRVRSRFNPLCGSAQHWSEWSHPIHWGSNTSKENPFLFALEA

As for IL-2 (from UniProt P60568), the Kd with IL-2Rβγc (Homo sapiens) is 1 nM.

B1: hCD25-His (receptor)
chain: ELCDDDPPEIPHATFKAMAYKEGTMLNCECKRGFRRIKSGSLYMLCTGNSSHSSWDNQCQCTSSATRNTTKQVTPQPEEQKERKTTEMQSPMQPVDQASLPGHCREPPPWENEATERIYHFVVGQMVYYQCVQGYRALHRGPAESVCKMTHGKTRWTQPQLICTGEMETSQFPGEEKPQASPEGRPESETSCLVTTTDFQIQTEMAATMETSIFTTEYQ
Take B1: the Kd in test [1] was 1080 nM and 1100 nM. The same molecule returned a koff in test [2] of 0.325 s⁻¹.
